Measurements as given in the MegaScale stability set (Tsuboyama et al. 2023).

B1: 2K2A (parent)
chain: ELREAFRLYDKEGNGYISTDVMREILAELDETLSSEDLDAMIDEIDADGSGTVDFEEFMGVMT

Variants of: B1
Test: folding stability dG (cDNA display proteolysis); higher = more stable
Conditions: PBS, room temperature

| Variant | folding stability dG |
| --- | --- |
| ELREAFWLYDKEGNGYISTDVMREILAELDETLSSEDLDAMIDEIDADGSGTVDFEEFMGVMT | 1.76 kcal/mol |
| ELREAFYLYDKEGNGYISTDVMREILAELDETLSSEDLDAMIDEIDADGSGTVDFEEFMGVMT | 1.67 kcal/mol |
| ELREAFRAYDKEGNGYISTDVMREILAELDETLSSEDLDAMIDEIDADGSGTVDFEEFMGVMT | 2.18 kcal/mol |
| ELREAFRDYDKEGNGYISTDVMREILAELDETLSSEDLDAMIDEIDADGSGTVDFEEFMGVMT | 0.997 kcal/mol |
| ELREAFREYDKEGNGYISTDVMREILAELDETLSSEDLDAMIDEIDADGSGTVDFEEFMGVMT | 1.52 kcal/mol |
| ELREAFRFYDKEGNGYISTDVMREILAELDETLSSEDLDAMIDEIDADGSGTVDFEEFMGVMT | 2.1 kcal/mol |
| ELREAFRGYDKEGNGYISTDVMREILAELDETLSSEDLDAMIDEIDADGSGTVDFEEFMGVMT | 1.73 kcal/mol |
| ELREAFRHYDKEGNGYISTDVMREILAELDETLSSEDLDAMIDEIDADGSGTVDFEEFMGVMT | 2.01 kcal/mol |
| ELREAFRIYDKEGNGYISTDVMREILAELDETLSSEDLDAMIDEIDADGSGTVDFEEFMGVMT | 1.8 kcal/mol |
| ELREAFRKYDKEGNGYISTDVMREILAELDETLSSEDLDAMIDEIDADGSGTVDFEEFMGVMT | 2.44 kcal/mol |
| ELREAFRMYDKEGNGYISTDVMREILAELDETLSSEDLDAMIDEIDADGSGTVDFEEFMGVMT | 2.05 kcal/mol |
| ELREAFRNYDKEGNGYISTDVMREILAELDETLSSEDLDAMIDEIDADGSGTVDFEEFMGVMT | 1.85 kcal/mol |
| ELREAFRPYDKEGNGYISTDVMREILAELDETLSSEDLDAMIDEIDADGSGTVDFEEFMGVMT | 0.853 kcal/mol |
| ELREAFRQYDKEGNGYISTDVMREILAELDETLSSEDLDAMIDEIDADGSGTVDFEEFMGVMT | 2.05 kcal/mol |
| ELREAFRRYDKEGNGYISTDVMREILAELDETLSSEDLDAMIDEIDADGSGTVDFEEFMGVMT | 2.38 kcal/mol |
| ELREAFRSYDKEGNGYISTDVMREILAELDETLSSEDLDAMIDEIDADGSGTVDFEEFMGVMT | 1.92 kcal/mol |
| ELREAFRTYDKEGNGYISTDVMREILAELDETLSSEDLDAMIDEIDADGSGTVDFEEFMGVMT | 1.94 kcal/mol |
| ELREAFRVYDKEGNGYISTDVMREILAELDETLSSEDLDAMIDEIDADGSGTVDFEEFMGVMT | 2.07 kcal/mol |
| ELREAFRWYDKEGNGYISTDVMREILAELDETLSSEDLDAMIDEIDADGSGTVDFEEFMGVMT | 1.83 kcal/mol |
| ELREAFRYYDKEGNGYISTDVMREILAELDETLSSEDLDAMIDEIDADGSGTVDFEEFMGVMT | 1.98 kcal/mol |
| ELREAFRLADKEGNGYISTDVMREILAELDETLSSEDLDAMIDEIDADGSGTVDFEEFMGVMT | 1.56 kcal/mol |
| ELREAFRLCDKEGNGYISTDVMREILAELDETLSSEDLDAMIDEIDADGSGTVDFEEFMGVMT | 1.94 kcal/mol |

| Variant | folding stability dG |
| --- | --- |
| ELREAFRLDDKEGNGYISTDVMREILAELDETLSSEDLDAMIDEIDADGSGTVDFEEFMGVMT | 0.261 kcal/mol |
| ELREAFRLEDKEGNGYISTDVMREILAELDETLSSEDLDAMIDEIDADGSGTVDFEEFMGVMT | 0.654 kcal/mol |
| ELREAFRLFDKEGNGYISTDVMREILAELDETLSSEDLDAMIDEIDADGSGTVDFEEFMGVMT | 1.59 kcal/mol |
| ELREAFRLGDKEGNGYISTDVMREILAELDETLSSEDLDAMIDEIDADGSGTVDFEEFMGVMT | 0.24 kcal/mol |
| ELREAFRLHDKEGNGYISTDVMREILAELDETLSSEDLDAMIDEIDADGSGTVDFEEFMGVMT | 1.59 kcal/mol |
| ELREAFRLIDKEGNGYISTDVMREILAELDETLSSEDLDAMIDEIDADGSGTVDFEEFMGVMT | 1.31 kcal/mol |
| ELREAFRLKDKEGNGYISTDVMREILAELDETLSSEDLDAMIDEIDADGSGTVDFEEFMGVMT | 0.775 kcal/mol |
| ELREAFRLLDKEGNGYISTDVMREILAELDETLSSEDLDAMIDEIDADGSGTVDFEEFMGVMT | 2.07 kcal/mol |
| ELREAFRLMDKEGNGYISTDVMREILAELDETLSSEDLDAMIDEIDADGSGTVDFEEFMGVMT | 1.43 kcal/mol |
| ELREAFRLNDKEGNGYISTDVMREILAELDETLSSEDLDAMIDEIDADGSGTVDFEEFMGVMT | 0.71 kcal/mol |
| ELREAFRLPDKEGNGYISTDVMREILAELDETLSSEDLDAMIDEIDADGSGTVDFEEFMGVMT | 0.057 kcal/mol |
| ELREAFRLQDKEGNGYISTDVMREILAELDETLSSEDLDAMIDEIDADGSGTVDFEEFMGVMT | 0.85 kcal/mol |
| ELREAFRLRDKEGNGYISTDVMREILAELDETLSSEDLDAMIDEIDADGSGTVDFEEFMGVMT | 1.32 kcal/mol |
| ELREAFRLSDKEGNGYISTDVMREILAELDETLSSEDLDAMIDEIDADGSGTVDFEEFMGVMT | 0.532 kcal/mol |
| ELREAFRLTDKEGNGYISTDVMREILAELDETLSSEDLDAMIDEIDADGSGTVDFEEFMGVMT | 0.17 kcal/mol |
| ELREAFRLVDKEGNGYISTDVMREILAELDETLSSEDLDAMIDEIDADGSGTVDFEEFMGVMT | 0.891 kcal/mol |
| ELREAFRLWDKEGNGYISTDVMREILAELDETLSSEDLDAMIDEIDADGSGTVDFEEFMGVMT | 2 kcal/mol |
| ELREAFRLYAKEGNGYISTDVMREILAELDETLSSEDLDAMIDEIDADGSGTVDFEEFMGVMT | 0.874 kcal/mol |
| ELREAFRLYCKEGNGYISTDVMREILAELDETLSSEDLDAMIDEIDADGSGTVDFEEFMGVMT | 2.18 kcal/mol |
| ELREAFRLYEKEGNGYISTDVMREILAELDETLSSEDLDAMIDEIDADGSGTVDFEEFMGVMT | 0.386 kcal/mol |
| ELREAFRLYFKEGNGYISTDVMREILAELDETLSSEDLDAMIDEIDADGSGTVDFEEFMGVMT | 1.66 kcal/mol |
| ELREAFRLYGKEGNGYISTDVMREILAELDETLSSEDLDAMIDEIDADGSGTVDFEEFMGVMT | 0.123 kcal/mol |

| Variant | folding stability dG |
| --- | --- |
| ELREAFRLYHKEGNGYISTDVMREILAELDETLSSEDLDAMIDEIDADGSGTVDFEEFMGVMT | -0.087 kcal/mol |
| ELREAFRLYIKEGNGYISTDVMREILAELDETLSSEDLDAMIDEIDADGSGTVDFEEFMGVMT | 1.21 kcal/mol |
| ELREAFRLYLKEGNGYISTDVMREILAELDETLSSEDLDAMIDEIDADGSGTVDFEEFMGVMT | 1.26 kcal/mol |
| ELREAFRLYMKEGNGYISTDVMREILAELDETLSSEDLDAMIDEIDADGSGTVDFEEFMGVMT | 1.39 kcal/mol |
| ELREAFRLYNKEGNGYISTDVMREILAELDETLSSEDLDAMIDEIDADGSGTVDFEEFMGVMT | -0.227 kcal/mol |
| ELREAFRLYQKEGNGYISTDVMREILAELDETLSSEDLDAMIDEIDADGSGTVDFEEFMGVMT | 0.395 kcal/mol |
| ELREAFRLYRKEGNGYISTDVMREILAELDETLSSEDLDAMIDEIDADGSGTVDFEEFMGVMT | -0.527 kcal/mol |
| ELREAFRLYSKEGNGYISTDVMREILAELDETLSSEDLDAMIDEIDADGSGTVDFEEFMGVMT | 0.55 kcal/mol |
| ELREAFRLYTKEGNGYISTDVMREILAELDETLSSEDLDAMIDEIDADGSGTVDFEEFMGVMT | 0.563 kcal/mol |
| ELREAFRLYVKEGNGYISTDVMREILAELDETLSSEDLDAMIDEIDADGSGTVDFEEFMGVMT | 0.886 kcal/mol |
| ELREAFRLYWKEGNGYISTDVMREILAELDETLSSEDLDAMIDEIDADGSGTVDFEEFMGVMT | 1.4 kcal/mol |
| ELREAFRLYYKEGNGYISTDVMREILAELDETLSSEDLDAMIDEIDADGSGTVDFEEFMGVMT | 1.15 kcal/mol |
| ELREAFRLYDAEGNGYISTDVMREILAELDETLSSEDLDAMIDEIDADGSGTVDFEEFMGVMT | 1.74 kcal/mol |
| ELREAFRLYDCEGNGYISTDVMREILAELDETLSSEDLDAMIDEIDADGSGTVDFEEFMGVMT | 2.07 kcal/mol |
| ELREAFRLYDDEGNGYISTDVMREILAELDETLSSEDLDAMIDEIDADGSGTVDFEEFMGVMT | 0.997 kcal/mol |
| ELREAFRLYDEEGNGYISTDVMREILAELDETLSSEDLDAMIDEIDADGSGTVDFEEFMGVMT | 1.36 kcal/mol |
| ELREAFRLYDFEGNGYISTDVMREILAELDETLSSEDLDAMIDEIDADGSGTVDFEEFMGVMT | 1.82 kcal/mol |
| ELREAFRLYDGEGNGYISTDVMREILAELDETLSSEDLDAMIDEIDADGSGTVDFEEFMGVMT | 1.03 kcal/mol |
| ELREAFRLYDHEGNGYISTDVMREILAELDETLSSEDLDAMIDEIDADGSGTVDFEEFMGVMT | 1.69 kcal/mol |
| ELREAFRLYDIEGNGYISTDVMREILAELDETLSSEDLDAMIDEIDADGSGTVDFEEFMGVMT | 2.01 kcal/mol |
| ELREAFRLYDLEGNGYISTDVMREILAELDETLSSEDLDAMIDEIDADGSGTVDFEEFMGVMT | 2.13 kcal/mol |
| ELREAFRLYDMEGNGYISTDVMREILAELDETLSSEDLDAMIDEIDADGSGTVDFEEFMGVMT | 1.77 kcal/mol |

| Variant | folding stability dG |
| --- | --- |
| ELREAFRLYDNEGNGYISTDVMREILAELDETLSSEDLDAMIDEIDADGSGTVDFEEFMGVMT | 1.4 kcal/mol |
| ELREAFRLYDPEGNGYISTDVMREILAELDETLSSEDLDAMIDEIDADGSGTVDFEEFMGVMT | 1.81 kcal/mol |
| ELREAFRLYDQEGNGYISTDVMREILAELDETLSSEDLDAMIDEIDADGSGTVDFEEFMGVMT | 1.72 kcal/mol |
| ELREAFRLYDREGNGYISTDVMREILAELDETLSSEDLDAMIDEIDADGSGTVDFEEFMGVMT | 1.71 kcal/mol |
| ELREAFRLYDSEGNGYISTDVMREILAELDETLSSEDLDAMIDEIDADGSGTVDFEEFMGVMT | 1.74 kcal/mol |
| ELREAFRLYDTEGNGYISTDVMREILAELDETLSSEDLDAMIDEIDADGSGTVDFEEFMGVMT | 1.94 kcal/mol |
| ELREAFRLYDVEGNGYISTDVMREILAELDETLSSEDLDAMIDEIDADGSGTVDFEEFMGVMT | 2.1 kcal/mol |
| ELREAFRLYDWEGNGYISTDVMREILAELDETLSSEDLDAMIDEIDADGSGTVDFEEFMGVMT | 1.88 kcal/mol |
| ELREAFRLYDYEGNGYISTDVMREILAELDETLSSEDLDAMIDEIDADGSGTVDFEEFMGVMT | 1.63 kcal/mol |
| ELREAFRLYDKAGNGYISTDVMREILAELDETLSSEDLDAMIDEIDADGSGTVDFEEFMGVMT | 1.57 kcal/mol |
| ELREAFRLYDKCGNGYISTDVMREILAELDETLSSEDLDAMIDEIDADGSGTVDFEEFMGVMT | 1.61 kcal/mol |
| ELREAFRLYDKDGNGYISTDVMREILAELDETLSSEDLDAMIDEIDADGSGTVDFEEFMGVMT | 1.85 kcal/mol |
| ELREAFRLYDKFGNGYISTDVMREILAELDETLSSEDLDAMIDEIDADGSGTVDFEEFMGVMT | 1.45 kcal/mol |
| ELREAFRLYDKGGNGYISTDVMREILAELDETLSSEDLDAMIDEIDADGSGTVDFEEFMGVMT | 1.16 kcal/mol |
| ELREAFRLYDKHGNGYISTDVMREILAELDETLSSEDLDAMIDEIDADGSGTVDFEEFMGVMT | 1.41 kcal/mol |
| ELREAFRLYDKIGNGYISTDVMREILAELDETLSSEDLDAMIDEIDADGSGTVDFEEFMGVMT | 1.1 kcal/mol |
| ELREAFRLYDKKGNGYISTDVMREILAELDETLSSEDLDAMIDEIDADGSGTVDFEEFMGVMT | 1.13 kcal/mol |
| ELREAFRLYDKLGNGYISTDVMREILAELDETLSSEDLDAMIDEIDADGSGTVDFEEFMGVMT | 1.55 kcal/mol |
| ELREAFRLYDKMGNGYISTDVMREILAELDETLSSEDLDAMIDEIDADGSGTVDFEEFMGVMT | 1.53 kcal/mol |
